Paper PMC6086839, “Elongator mutation in mice induces neurodegeneration and ataxia-like behavior” (Nature Communications, 2018)

B2: yeast Elongator complex subunit 6 (yElp6) (natural protein, S. cerevisiae)
chain: MGSVQRQDLVLFSDQSVLPAHFFQDSNSHNLFFITHQSCTQPLWMINALVETHVLGSPSSLNESSSSMLPSSTRSHAVLASFIHEQNYFTNSLNKLKIPSNNYNVLDFLSDFIVNNIHNKPRDKILSDVLAKFSAAIQNNPTDTIVIIEQPELLLSLVSGLTCSELNNKFITPLLRQCKVLIIVSNSDIFNIDEYDASVHSSNLQNFYKSSFIKSMINLNLNPLKTGFAKDVTGSLHVCRGGAPIATSNTSLHVVENEYLYLNEKESTKLFYR
notes: Elp6, S. cerevisiae, Q04868; printed without limits (yElp456); source: purified Elp456 complex from yeast subunits

Experiments:
[1] = target: T1, yeast Elp4 residues 66-426 (yElp4_(66-426)) (S. cerevisiae, UniProt Q02884 66-426); assay: co-purification (NiNTA affinity, then SEC); subunits co-expressed in E. coli; truncated complexes purified as complexes and then used for Thermofluor; settings: both partners purified
T1 construct: source: purified complex
T1 sequence (looked up): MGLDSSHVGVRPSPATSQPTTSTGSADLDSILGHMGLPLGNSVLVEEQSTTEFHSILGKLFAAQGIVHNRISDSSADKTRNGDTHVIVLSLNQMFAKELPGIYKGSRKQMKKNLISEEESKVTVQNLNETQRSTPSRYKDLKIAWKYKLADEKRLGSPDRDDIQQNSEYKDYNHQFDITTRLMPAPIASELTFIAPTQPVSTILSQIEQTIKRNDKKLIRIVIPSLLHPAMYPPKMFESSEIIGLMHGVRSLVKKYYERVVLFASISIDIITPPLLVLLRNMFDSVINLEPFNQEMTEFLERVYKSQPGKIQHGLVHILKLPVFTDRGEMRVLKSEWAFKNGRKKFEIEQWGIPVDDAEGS

[2] = target: B2; assay: as above; settings: both partners purified

B1: yeast Elp5 residues 1-270 (yElp5_(1-270)) (domain or fragment, S. cerevisiae, UniProt P38874 1-270, looked up)
chain: MASSSHNPVILLKRILSLTESSPFILCLDSIAQTSYKLIQEFVHQSKSKGNEYPIVYISFETVNKPSYCTQFIDATQMDFVHLVKQIISYLPAATATQAKKHMVIIDSLNYISTEYITRFLSEIASPHCTMVATYHKDIKDENRTVIPDWNNNYPDKLTLLQFMATTIVDIDVVLTGTLDTEEVSELLNEFRIPRGLNNDIFQLRLVNKRKSGRSLEYDFIVNSNTHEYELLSTTKQEEESSSNGLETPEMLQGLTTFNLGTSNKQKLAK
notes: Elp5, yeast, residues 1-270; source: purified complex
B1: binds [1]; binds [2].

B2: binds [1].
